In publication doi:10.1101/038398 one finds Kd, dH and stoichiometry N data, which are given here for one molecule.

The target of test [1] is human iNOS oxygenase domain, recombinant (human). The test is described as follows: SPR.
Test [2] has the same target. The test can be described thus: ITC. Background: ITC needs no label: the signal is the heat of the interaction.

Sequence of human iNOS oxygenase domain, recombinant (human) (P35228 whole entry, the tested form may be a part): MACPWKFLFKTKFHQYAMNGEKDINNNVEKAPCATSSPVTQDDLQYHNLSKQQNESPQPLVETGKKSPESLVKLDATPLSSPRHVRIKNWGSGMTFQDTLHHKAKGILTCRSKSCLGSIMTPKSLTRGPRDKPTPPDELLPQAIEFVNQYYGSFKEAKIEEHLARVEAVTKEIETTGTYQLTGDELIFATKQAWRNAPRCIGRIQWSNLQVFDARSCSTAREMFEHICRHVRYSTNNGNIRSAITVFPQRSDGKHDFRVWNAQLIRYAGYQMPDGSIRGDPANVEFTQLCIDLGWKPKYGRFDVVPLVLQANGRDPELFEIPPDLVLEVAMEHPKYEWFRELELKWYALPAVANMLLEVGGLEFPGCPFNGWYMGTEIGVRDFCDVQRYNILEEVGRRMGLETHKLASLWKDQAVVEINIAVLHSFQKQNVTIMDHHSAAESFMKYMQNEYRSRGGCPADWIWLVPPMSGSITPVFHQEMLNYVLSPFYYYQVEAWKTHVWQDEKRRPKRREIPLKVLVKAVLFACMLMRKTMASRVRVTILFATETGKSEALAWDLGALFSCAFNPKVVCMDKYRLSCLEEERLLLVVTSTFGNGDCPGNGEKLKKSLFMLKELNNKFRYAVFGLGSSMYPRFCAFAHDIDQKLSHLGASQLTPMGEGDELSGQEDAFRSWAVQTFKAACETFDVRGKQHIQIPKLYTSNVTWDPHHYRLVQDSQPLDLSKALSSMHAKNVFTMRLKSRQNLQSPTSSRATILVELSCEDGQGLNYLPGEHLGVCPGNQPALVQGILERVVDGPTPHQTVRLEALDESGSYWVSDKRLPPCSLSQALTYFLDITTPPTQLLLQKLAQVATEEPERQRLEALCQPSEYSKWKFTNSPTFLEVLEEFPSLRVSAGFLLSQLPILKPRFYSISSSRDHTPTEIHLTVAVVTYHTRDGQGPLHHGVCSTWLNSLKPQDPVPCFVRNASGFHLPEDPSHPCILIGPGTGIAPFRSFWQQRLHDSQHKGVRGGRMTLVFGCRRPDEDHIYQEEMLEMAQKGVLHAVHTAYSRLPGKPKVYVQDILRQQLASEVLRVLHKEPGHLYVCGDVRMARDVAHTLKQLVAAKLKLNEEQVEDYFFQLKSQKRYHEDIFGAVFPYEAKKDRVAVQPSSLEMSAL

B1: Nitric oxide synthase interacting protein (NOSIP), full length, recombinant (natural protein)
chain: MTRHGKNCTAGAVYTYHEKKKDTAASGYGTQNIRLSRDAVKDFDCCCLSLQPCHDPVVTPDGYLYEREAILEYILHQKKEIARQMKAYEKQRGTRREEQKELQRAASQDHVRGFLEKESAIVSRPLNPFTAKALSGTSPDDVQPGPSVGPPSKDKDKVLPSFWIPSLTPEAKATKLEKPSRTVTCPMSGKPLRMSDLTPVHFTPLDSSVDRVGLITRSERYVCAVTRDSLSNATPCAVLRPSGAVVTLECVEKLIRKDMVDPVTGDKLTDRDIIVLQRGGTGFAGSGVKLQAEKSRPVMQA
B1: the Kd (usually the equilibrium constant for the complex coming apart) in test [1] was 7.11 nM. Besides, in test [2], the dH was -38.2 kcal/mol and the stoichiometry N (usually the number of molecules, sites or subunits per partner or assembly) was 0.505.
